Measured values: article PMC7936274

Molecular target: T1, OapB (Bacillus halodurans, UniProt Q9KGD7 5-102)
T1 sequence: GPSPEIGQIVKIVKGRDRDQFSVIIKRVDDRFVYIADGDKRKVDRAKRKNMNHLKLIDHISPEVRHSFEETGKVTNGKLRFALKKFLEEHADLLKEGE
Test: X-ray crystallography

B1: OLE* (P12.2, P13, P14, P15 minimized OLE RNA) (structured_RNA)
RNA: GGCCAGUCUGGCGUUUGGUGACAGCGCCAAGUUCUUCGGAAUUGGGAAAUCCUACUGGCC
B1: binds.
